Patent publication US6905817B1, “Ret-independent signaling pathway for GDNF” (Licestia Ltd., priority 1998, dated 2005)
Entries after “also recorded” stand apart in the source; their conditions may differ.

Experiments:
[1] = system: MAPK; assay: MAPK phosphorylation in parental NIH3T3 fibroblasts lacking both Ret and GFRα1; assay type: cell-based; conditions: GDNF 100 ng/ml alone
Procedure: (§1) To assess GDNF-dependent MAPK and CREB phosphorylation in all studied cell lines, the semiconfluent cell monolayers were starved for 3 hours in serum-free medium, and then GDNF was applied for the indicated time. For the analysis of MAPK and CREB activation in Ret^−/− animals the DRG neurons were dissected from E18 mice and maintained in NGF-containing medium for 2 hours. After this time the neurons were deprived of NGF by placing them in NGF-free medium in the presence of anti-NGF antibodies. After 2 hr without NGF, the neurons were stimulated with GDNF. In the experiments involving Src-kinase inhibition, a Src-family kinase inhibitor PP2 was added at the indicated concentrations to the cell monolayers 5 min before GDNF application. In some experiments 1 μg/ml of soluble GFRα1 lacking a GPI anchor (GFRα1/Fc chimeric protein; R&D systems) was added 5 min prior to the GDNF application and was kept in the solution during the GDNF treatment, After stimulation, the cells were briefly washed with PBS/sodium vanadate and lysed in the buffer containing TBS, 2 mM EDTA, 1% NP-40, 1% Triton X-100, 1 mM PMSF, 1 mM Na3VO4 and a Complete, protease inhibitors cocktail (Boehringer Mannheim). Total cell protein for each extract was measured by MicroBSA (Pierce) and an equivalent amount of protein was resolved electrophoretically on 10% polyacrylamide gels. […]

[2] = system: GFRα2^−/− DRG neurons; assay: GDNF-evoked [Ca^2+]i changes, confocal microscopy, GFRα2^−/− DRG neurons; assay type: cell-based, mouse
Procedure: (§2) DRG from embryonic day 18 (E18) mice were treated with trypsin (Worthington), non-neuronal cells removed by preplating, and about 95% pure neurons cultured on poly-ornithine-laminin-coated glass coverslips in Ham's F14 medium (Imperial Laboratories) with serum substitute containing NGF, BDNF and NT-3 (all from PeproTech, 2 ng/ml if each) for at least 1 day before measurement. Neurotrophins were extensively washed out before GDNF application. GDNF was from PeproTech and donated by Cephalon, Inc. Ret-deficient mice (Schuchardt et al., 1994) were identified from heterozygote matings by the absence of kidneys and PCR-based genotyping. GFRα2-deficient mice were obtained from homozygote matings (Rossi et al., 1999).
(§3) [Ca^2+]i was measured using a Bio-Rad MRC-1024 confocal microscope equipped with an argon-krypton laser. The cells were loaded with 10 μM Calcium Green-1AM (Molecular Probes), a membrane permeable Ca^2+ dye, by 30 min incubation in serum free cell-culture media at 37 ° C. and 5 % CO2. After loading, the neurons were kept at room temperature in Dulbecco's PBS solution contained 20 mM HEPES (pH=7.4) for at least 20 min prior to the experiments. All compounds were applied to the bath by a peristaltic pump. 6 kD Heparin (Sigma) and Alexa 568 nm fluorescent dye (Molecular Probes) were loaded into the cells using Molecular Probes' pinocytotic influx loading reagent basically according to the manufacturer instructions. […] Cell injection was performed using Eppendorf microinjection system. The average intensity of fluorescence in the predefined ROI (Region Of Interest) was measured on-line using TimeCourse software from BioRad. The calibration of fluorescence traces was performed in vitro using Fmax and Fmin values obtained with the calcium calibration buffer kit (Molecular Probes). Because the calibration solutions may not reflect the intracellular environment, the experimental data are presented as delta [Ca^2+]i calculated using Kd=190 nM for Calcium Green-1.
Transgenic GFRα2 knock-out mice were produced in our laboratory. […]

[3] = system: wild type mouse DRG neurons; assay: GDNF-evoked [Ca^2+]i changes, confocal microscopy with Calcium Green-1AM, wild type DRG neurons; assay type: cell-based
Procedure: as §2, §3

[4] = system: CREB-related protein ATF-1; assay: ATF-1 phosphorylation in SHEP cells; assay type: cell-based, human; conditions: GDNF treatment
Procedure: as §1

[5] = system: PLCγ; assay: PLCγ tyrosine phosphorylation (immunoprecipitation and Western blotting) in SHEP cells; assay type: cell-based, human
Procedure: To determine changes in GDNF-evoked PLCγ tyrosine phosphorylation the Western blotting assays were performed as described in Khare et al. (1997). Briefly, SHEP neuroblastoma cells were pre-incubated with 1 mM sodium vanadate in serum-free medium for 30 min. at 37 ° C. and then were treated at 37 ° C. with 1-100 ng/ml GDNF for 1 min. unless otherwise indicated. Incubation was stopped by the addition of ice-cold PBS buffer containing 1 mM sodium vanadate. Whole cell lysates (final protein concentration 0.1-0.3 mg/ml) were prepared at 4° C. in an extraction buffer (pH 7.5) containing 50 mM Tris-HCl, 137 mM NaCl, 1 mM sodium vanadate, 1 mM PMSF, 10% glycerol, 1% NP-40 and protease inhibitors cocktail (Boehringer). Phosphotyrosine-containing proteins were immunoprecipitated with 4G-10 antibodies (Upstate Biotechnology), collected with Protein A Sepharose beads and separated on the 7.5% SDS-PAGE. The proteins were transferred to Hybond-ECL nitrocellulose membrane, and PLCγ was assessed by Western blotting using anti-PLCγ antibodies (Upstate Biotechnology). In some experiments we first immunoprecipitated PLCγ from the cell lysate using anti-PLCγ antibodies and probed the filter with anti-phosphotyrosine 4G-10 antibodies as described above. […]

[6] = system: p42/p44 MAP kinases; assay: MAPK phosphorylation assay in Ret^−/− DRG neurons; assay type: cell-based, mouse; conditions: GDNF 100 ng/ml
Procedure: as §1

[7] = system: Ret^−/− DRG neurons; assay: Survival of Ret^−/− DRG neurons in culture; assay type: cell-based, mouse; conditions: unpublished observations and Taraviras et al., 1999
[8] = system: p42/p44 MAPK; assay: MAPK phosphorylation assay in SHEP neuroblastoma cells; assay type: cell-based, human; conditions: GDNF 100 ng/ml
Procedure: as §1

B1: Glial cell line—derived neurotrophic factor (protein, UniProt P39905 78-211, looked up)
Glial cell line-derived …: SPDKQMAVLPRRERNRQAAAANPENSRGKGRRGQRGKNRGCVLTAIHLNVTDLGLGYETKEELIFRYCSGSCDAAETTYDKILKNLSRNRRLVSDKVGQACCRPIAFDDDLSFLDDNLVYHILRKHSAKRCGCI
notes: TGF-β family-related neurotrophic protein; from PeproTech and donated by Cephalon, Inc
MAPK phosphorylation [1]: did not evoke any MAPK phosphorylation | change in [Ca^2+]i ([2]; GDNF 100 ng/ml, normal external Ca^2+): evoked both transient and sustained [Ca^2+]i elevation; also recorded: same pattern of fast and slow kinetics of Ca^2+ elevation as the wild type neurons | change in [Ca^2+]i ([2]; GDNF after nominal removal of extracellular calcium (about 20 μM)): profound rapid and oscillatory (5 out of 9 cells) [Ca^2+]i increase | wild type DRG neurons in which GDNF-evoked changes in [Ca^2+]i were observed [3]: 60-70% | change in [Ca^2+]i ([3]; GDNF 10 ng/ml): induced a rapid transient increase in [Ca^2+]i | change in [Ca^2+]i ([3]; GDNF concentrations over 10 ng/ml (10-100 ng/ml)): evoked rapid and long-lasting elevations in [Ca^2+]i; also recorded: evoked both a transient and slow long-lasting elevation in [Ca^2+]i | phosphorylation / activation of ATF-1 [4]: induced phosphorylation of the CREB-related protein ATF-1; also recorded: robust GDNF-dependent activation of the CREB-related protein ATF-1 | time to return to basal tyrosine phosphorylation levels of PLCγ ([5]; GDNF): ≤ 5 min | PLCγ tyrosine phosphorylation ([5]; GDNF 1-100 ng/ml, 1 min): significantly increased PLCγ tyrosine phosphorylation; also recorded: dose-dependent increase in PLCγ tyrosine phosphorylation | activation (phosphorylation) of MAPK [6]: several-fold rapid activation of MAPK | survival of Ret^−/− DRG neurons in culture [7]: not been shown to stimulate survival | p42/p44 MAPK phosphorylation [8]: transient and profound increase of p42/p44 MAPK phosphorylation
